Test results: paper PMC3206016, “Putting into Practice Domain-Linear Motif Interaction Predictions for Exploration of Protein Networks” (PLoS ONE, 2011)
Ends that are not written are not given here. * marks the point of attachment. Biotin = O=C1N[C@H]2[C@H](CS[C@H]2CCCCC(=O)*)N1

B1: NET1_10 (long peptide of Neuroepithelial cell-transforming gene 1 protein: the last ten residues) (peptide)
peptide: Biotin-SGGKRKETLV
notes: also called NET1 long; source: synthetic peptide (JPT Peptide Technologies)
B2: ARHGAP6_10 (long peptide of Rho GTPase-activating protein 6: the last ten residues) (peptide)
peptide: Biotin-NPDALPETLV
notes: also called ARHGAP6 long; source: synthetic peptide (JPT Peptide Technologies)
B3: NET1_05 (short peptide of Neuroepithelial cell-transforming gene 1 protein: GSGAG and the last five residues) (peptide)
peptide: Biotin-GSGAGKETLV
notes: also called NET1 short; source: synthetic peptide (JPT Peptide Technologies)
B4: ABC1_10 (long peptide of ATP-binding cassette sub-family A member 1: the last ten residues) (peptide)
peptide: Biotin-QDEKVKESYV
notes: also called ABC1 long; source: synthetic peptide (JPT Peptide Technologies)
B5: ARHGAP6_05 (short peptide of Rho GTPase-activating protein 6: GSGAG and the last five residues) (peptide)
peptide: Biotin-GSGAGPETLV
notes: also called ARHGAP6 short; source: synthetic peptide (JPT Peptide Technologies)
B6: ABC1_05 (short peptide of ATP-binding cassette sub-family A member 1: GSGAG and the last five residues) (peptide)
peptide: Biotin-GSGAGKESYV
notes: also called ABC1 short; source: synthetic peptide (JPT Peptide Technologies)
B7: DLL1_10 (long peptide of Delta-like protein 1: the last ten residues) (peptide)
peptide: Biotin-KDECVIATEV
notes: also called DLL1 long; source: synthetic peptide (JPT Peptide Technologies)
B8: DLL1_05 (short peptide of Delta-like protein 1: GSGAG and the last five residues) (peptide)
peptide: Biotin-GSGAGIATEV
notes: also called DLL1 short; source: synthetic peptide (JPT Peptide Technologies)
B9: SCRIB-3/4 (MBP fusion of the third of the four PDZ domains of SCRIB) (domain or fragment)
chain: EGPYPVEEIRLPRAGGPLGLSIVGGSDHSSHPFGVQEPGVFISKVLPRGLAARSGLRVGDRILAVNGQDVRDATHQEAVSALLRPCLELSLLVRRDP
notes: also called MBP-PDZ analyte SCRIB-3/4; source: E. coli BL21 DE3, purified (amylose column, Superdex 75 gel filtration)
B10: SCRIB-34/4 (MBP fusion of the tandem of the third and fourth PDZ domains of SCRIB) (domain or fragment)
chain: EGPYPVEEIRLPRAGGPLGLSIVGGSDHSSHPFGVQEPGVFISKVLPRGLAARSGLRVGDRILAVNGQDVRDATHQEAVSALLRPCLELSLLVRRDPAPPGLRELCIQKAPGERLGISIRGGARGHAGNPRDPTDEGIFISKVSPTGAAGRDGRLRVGLRLLEVNQQSLLGLTHGEAVQLLRSVGDTLTVLVCDGFE
notes: also called MBP-PDZ analyte SCRIB-34/4; tandem PDZ construct; source: E. coli BL21 DE3, purified (amylose column, Superdex 75 gel filtration)
B11: MAGI1-2/6 (MBP fusion of the second of the six PDZ domains of MAGI1) (domain or fragment)
chain: KPFFTRNPSELKGKFIHTKLRKSSRGFGFTVVGGDEPDEFLQIKSLVLDGPAALDGKMETGDVIVSVNDTCVLGHTHAQVVKIFQSIPIGASVDLELCRGYPLPFDPDDPNTSLVTSVAILDKEP
notes: source: E. coli BL21 DE3, purified (amylose column, Superdex 75 gel filtration)
B12: MAS_10 (long peptide of Proto-oncogene Mas: the last ten residues) (peptide)
peptide: Biotin-CNTVTVETVV
notes: also called MAS long; source: synthetic peptide (JPT Peptide Technologies)
B13: CYSLTR2_05 (short peptide of Cysteinyl leukotriene receptor 2: GSGAG and the last five residues) (peptide)
peptide: Biotin-GSGAGKETRV
notes: also called CYSLTR2 short; source: synthetic peptide (JPT Peptide Technologies)
B14: GLAST_05 (short peptide of Excitatory amino acid transporter 1: GSGAG and the last five residues) (peptide)
peptide: Biotin-GSGAGSETKM
notes: also called GLAST short; source: synthetic peptide (JPT Peptide Technologies)
B15: TTC24_05 (short peptide of Tetratricopeptide repeat protein 24: GSGAG and the last five residues) (peptide)
peptide: Biotin-GSGAGICTIV
notes: also called TTC24 short; source: synthetic peptide (JPT Peptide Technologies)
B16: CYSLTR2_10 (long peptide of Cysteinyl leukotriene receptor 2: the last ten residues) (peptide)
peptide: Biotin-SVWLRKETRV
notes: also called CYSLTR2 long; source: synthetic peptide (JPT Peptide Technologies)
B17: ADAM17_10 (long peptide of Disintegrin and metalloproteinase domain-containing protein 17: the last ten residues) (peptide)
peptide: Biotin-NRVDSKETEC
notes: also called ADAM17 long; source: synthetic peptide (JPT Peptide Technologies)
B18: ATP1A1_10 (long peptide of Sodium/potassium-transporting ATPase subunit alpha-1: the last ten residues) (peptide)
peptide: Biotin-GGWVEKETYY
notes: also called ATP1A1 long; source: synthetic peptide (JPT Peptide Technologies)
B19: ATP1A1_05 (short peptide of Sodium/potassium-transporting ATPase subunit alpha-1: GSGAG and the last five residues) (peptide)
peptide: Biotin-GSGAGKETYY
notes: also called ATP1A1 short; source: synthetic peptide (JPT Peptide Technologies)
B20: FZD4_10 (long peptide of Frizzled-4: the last ten residues) (peptide)
peptide: Biotin-KPGKGSETVV
notes: also called FZD4 long; source: synthetic peptide (JPT Peptide Technologies)
B21: SCRIB-4/4 (MBP fusion of the fourth of the four PDZ domains of SCRIB) (domain or fragment)
chain: GLRELCIQKAPGERLGISIRGGARGHAGNPRDPTDEGIFISKVSPTGAAGRDGRLRVGLRLLEVNQQSLLGLTHGEAVQLLRSVGDTLTVLVCDGFE
notes: also called MBP-PDZ analyte SCRIB-4/4; source: E. coli BL21 DE3, purified (amylose column, Superdex 75 gel filtration)
B22: MAGI1-3/6 (MBP fusion of the third of the six PDZ domains of MAGI1) (domain or fragment)
chain: SHGYPNDTVSLASSIATQPELITVHIVKGPMGFGFTIADSPGGGGQRVKQIVDSPRCRGLKEGDLIVEVNKKNVQALTHNQVVDMLIECPKGSEVTLLVQRGGLPVPKKSPKSQPLERKDSQNSSQHSVSSHRSLHTASP
notes: as for B11
B23: GLUT7_05 (short peptide of Solute carrier family 2, facilitated glucose transporter member 7: GSGAG and the last five residues) (peptide)
peptide: Biotin-GSGAGKETSF
notes: also called GLUT7 short; source: synthetic peptide (JPT Peptide Technologies)
B24: GLUT7_10 (long peptide of Solute carrier family 2, facilitated glucose transporter member 7: the last ten residues) (peptide)
peptide: Biotin-TASPAKETSF
notes: also called GLUT7 long; source: synthetic peptide (JPT Peptide Technologies)
B25: TANC1_05 (short peptide of Tetratricopeptide repeat, ankyrin repeat and coiled-coil domain-containing protein 1: GSGAG and the last five residues) (peptide)
peptide: Biotin-GSGAGIESNV
notes: also called TANC1 short; source: synthetic peptide (JPT Peptide Technologies)
B26: PTEN_05 (short peptide of PTEN: GSGAG and the last five residues) (peptide)
peptide: Biotin-GSGAGQITKV
notes: also called PTEN short; source: synthetic peptide (JPT Peptide Technologies)
B27: PTEN_10 (long peptide of PTEN: the last ten residues) (peptide)
peptide: Biotin-EDQHTQITKV
notes: also called PTEN long; source: synthetic peptide (JPT Peptide Technologies)
B28: TMEM215_10 (long peptide of Transmembrane protein 215: the last ten residues) (peptide)
peptide: Biotin-QGRWDHETIV
notes: also called TMEM215 long; source: synthetic peptide (JPT Peptide Technologies)
B29: MARCH3_10 (long peptide of E3 ubiquitin-protein ligase MARCH3: the last ten residues) (peptide)
peptide: Biotin-VKRNSKETVV
notes: also called MARCH3 long; source: synthetic peptide (JPT Peptide Technologies)
B30: TMEM215_05 (short peptide of Transmembrane protein 215: GSGAG and the last five residues) (peptide)
peptide: Biotin-GSGAGHETIV
notes: also called TMEM215 short; source: synthetic peptide (JPT Peptide Technologies)
B31: MAS_05 (short peptide of Proto-oncogene Mas: GSGAG and the last five residues) (peptide)
peptide: Biotin-GSGAGVETVV
notes: also called MAS short; source: synthetic peptide (JPT Peptide Technologies)
B32: VANG2_05 (short peptide of Vang-like protein 2: GSGAG and the last five residues) (peptide)
peptide: Biotin-GSGAGSETSV
notes: also called VANG2 short; source: synthetic peptide (JPT Peptide Technologies)
B33: MARCH3_05 (short peptide of E3 ubiquitin-protein ligase MARCH3: GSGAG and the last five residues) (peptide)
peptide: Biotin-GSGAGKETVV
notes: also called MARCH3 short; source: synthetic peptide (JPT Peptide Technologies)
B34: VANG2_10 (long peptide of Vang-like protein 2: the last ten residues) (peptide)
peptide: Biotin-VMRLQSETSV
notes: also called VANG2 long; source: synthetic peptide (JPT Peptide Technologies)
B35: FZD4_05 (short peptide of Frizzled-4: GSGAG and the last five residues) (peptide)
peptide: Biotin-GSGAGSETVV
notes: also called FZD4 short; source: synthetic peptide (JPT Peptide Technologies)

biological target: B10; assay: SPR; details: both partners purified

Row | Binder | Kd [µM]
1 | B1 | 63
2 | B2 | 28
3 | B3 | 15
4 | B4 | 8
5 | B5 | 31
6 | B6 | 10

biological target: B22; assay: SPR; details: both partners purified

Row | Binder | Kd [µM]
7 | B1 | 37
8 | B2 | 41
9 | B3 | 23
10 | B4 | 20
11 | B5 | 58
12 | B7 | 238
13 | B8 | 246
14 | B6 | 26

biological target: B9; assay: SPR; details: both partners purified

Row | Binder | Kd [µM]
15 | B1 | 217
16 | B2 | 541
17 | B3 | 308
18 | B4 | 107
19 | B5 | 216
20 | B7 | 172
21 | B8 | 200
22 | B6 | 229

biological target: T1, 16E6_05 (short peptide of HPV16 early protein E6: GSGAG and the last five residues) (human papilloma virus 16, biotin at N-terminus); assay: SPR; details: both partners purified
T1 construct: also called 16E6 short; source: synthetic peptide (JPT Peptide Technologies)

Row | Binder | Kd [µM]
23 | B9 | 12
24 | B10 | 1
25 | B11 | 7

biological target: B11; assay: SPR; details: both partners purified

Row | Binder | Kd [µM]
26 | B1 | 3
27 | B2 | 18
28 | B3 | 62
29 | B4 | 45
30 | B5 | 2000
31 | B8 | 32
32 | B6 | 91

biological target: B10; assay: SPR; details: both partners purified; remark: another data set of the same source

Row | Binder | Kd [µM]
33 | B12 | 3
34 | B13 | 10
35 | B14 | 179
36 | B15 | 25
37 | B16 | 15
38 | B17 | 8

biological target: B22; assay: SPR; details: both partners purified; remark: another data set of the same source

Row | Binder | Kd [µM]
39 | B12 | 123
40 | B13 | 21
41 | B15 | 34

biological target: B9; assay: SPR; details: both partners purified; remark: another data set of the same source

Row | Binder | Kd [µM]
42 | B12 | 73
43 | B13 | 103
44 | B14 | 182
45 | B15 | 239
46 | B16 | 34
47 | B17 | 79
48 | B18 | 88
49 | B19 | 1280

biological target: B11; assay: SPR; details: both partners purified; remark: another data set of the same source

Row | Binder | Kd [µM]
50 | B13 | 30
51 | B20 | 23
52 | B15 | 65
53 | B16 | 4

biological target: T2, TAX1_05 (short peptide of the Trans-activating transcriptional regulatory protein of HTLV-1: GSGAG a (HTLV-1A, biotin at N-terminus)); assay: SPR; details: both partners purified
T2 construct: source: synthetic peptide (JPT Peptide Technologies)

Row | Binder | Kd [µM]
54 | B9 | 96
55 | B21 | 50
56 | B10 | 1
57 | B22 | 75
58 | B11 | 33

biological target: B10; assay: SPR; details: both partners purified; remark: another data set of the same source

Row | Binder | Kd [µM]
59 | B23 | 5
60 | B24 | 5
61 | B25 | 9

biological target: B22; assay: SPR; details: both partners purified; remark: another data set of the same source

Row | Binder | Kd [µM]
62 | B26 | 453
63 | B27 | 144
64 | B25 | 14

biological target: B9; assay: SPR; details: both partners purified; remark: another data set of the same source

Row | Binder | Kd [µM]
65 | B23 | 56
66 | B24 | 45
67 | B25 | 498

biological target: B10; assay: SPR; details: both partners purified; remark: another data set of the same source

Row | Binder | Kd [µM]
68 | B28 | 9
69 | B29 | 16
70 | B30 | 15
71 | B31 | 16
72 | B32 | 4
73 | B33 | 7
74 | B34 | 5

biological target: B22; assay: SPR; details: both partners purified; remark: another data set of the same source

Row | Binder | Kd [µM]
75 | B28 | 67
76 | B29 | 686
77 | B30 | 116
78 | B31 | 90

biological target: B9; assay: SPR; details: both partners purified; remark: another data set of the same source

Row | Binder | Kd [µM]
79 | B28 | 128
80 | B29 | 100
81 | B30 | 213
82 | B31 | 158
83 | B32 | 24
84 | B33 | 46
85 | B17 | 97
86 | B34 | 12

biological target: B11; assay: SPR; details: both partners purified; remark: another data set of the same source

Row | Binder | Kd [µM]
87 | B29 | 103
88 | B31 | 2740
89 | B33 | 225
90 | B35 | 146
